Substrate in the series: O=[N+]([O-])c1ccc(O[C@@H]2O[C@H](CO)[C@@H](O)[C@H](O)[C@H]2O)cc1
The series can be described thus: purified protein. The note with it: technical triplicates.

Setting [1] is: biological replicate a of two, low protein yield.

These results are taken from paper doi:10.1101/2023.05.10.540081v1.

Substitutions are numbered along the chain they refer to. Names and notes keep the numbering of the source.

B1: β-glucosidase B (BglB) (Paenibacillus polymyxa) (protein)
chain: MSENTFIFPATFMWGTSTSSYQIEGGTDEGGRTPSIWDTFCQIPGKVIGGDCGDVACDHFHHFKEDVQLMKQLGFLHYRFSVAWPRIMPAAGIINEEGLLFYEHLLDEIELAGLIPMLTLYHWDLPQWIEDEGGWTQRETIQHFKTYASVIMDRFGERINWWNTINEPYCASILGYGTGEHAPGHENWREAFTAAHHILMCHGIASNLHKEKGLTGKIGITLNMEHVDAASERPEDVAAAIRRDGFINRWFAEPLFNGKYPEDMVEWYGTYLNGLDFVQPGDMELIQQPGDFLGINYYTRSIIRSTNDASLLQVEQVHMEEPVTDMGWEIHPESFYKLLTRIEKDFSKGLPILITENGAAMRDELVNGQIEDTGRHGYIEEHLKACHRFIEEGGQLKGYFVWSFLDNFEWAWGYSKRFGIVHINYETQERTPKQSALWFKQMMAKNGF
Consider B1, for which the Km is given as 4.38 mM and the kcat was found to be 6.1433 s⁻¹.

B2: β-glucosidase B (BglB) (Paenibacillus polymyxa; Y169H) (protein)
chain: B1 chain with Y169H
Turning to B2, where the note is “biological replicate a of two”, the Km turned out to be 22.35 mM and the turnover number (kcat) stood at 9.8983 s⁻¹.

B3: β-glucosidase B (BglB) (Paenibacillus polymyxa; V314D) (protein)
chain: B1 chain with V314D
On to B3, for which the Km worked out at 6.84 mM and the kcat was found to be 4.9167 s⁻¹.

B4: β-glucosidase B (BglB) (Paenibacillus polymyxa; M224K) (protein)
chain: B1 chain with M224K
On to B4, for which, under setting [1], the Km turned out to be 7.54 mM and the kcat was determined as 1.695 s⁻¹.

Usually Km stands for the concentration of substrate that gives half-maximal velocity. For orientation: kcat means the maximal rate divided by the concentration of active sites.
